Measured values reported in PMC10277282.

Molecular target: MHC II (mouse (endogenous in BMDM)) (UniProt P14434)
Sequence of UniProt P14434 (P14434 24-256, chain 1 of 2): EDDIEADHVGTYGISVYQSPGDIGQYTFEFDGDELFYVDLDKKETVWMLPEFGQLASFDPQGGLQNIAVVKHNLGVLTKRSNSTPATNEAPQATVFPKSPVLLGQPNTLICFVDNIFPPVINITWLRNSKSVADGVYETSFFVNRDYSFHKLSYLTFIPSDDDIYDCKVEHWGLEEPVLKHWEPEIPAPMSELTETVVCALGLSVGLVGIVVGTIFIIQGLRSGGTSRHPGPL
Sequence of UniProt P14434 (P14483 28-265, chain 2 of 2, further chain): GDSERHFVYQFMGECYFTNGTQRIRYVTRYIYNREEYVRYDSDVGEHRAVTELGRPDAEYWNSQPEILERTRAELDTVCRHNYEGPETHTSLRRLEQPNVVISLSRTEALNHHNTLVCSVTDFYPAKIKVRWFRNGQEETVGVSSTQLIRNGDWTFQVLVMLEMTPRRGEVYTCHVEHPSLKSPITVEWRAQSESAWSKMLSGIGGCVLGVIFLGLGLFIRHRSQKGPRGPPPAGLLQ

Substance: soluble CD4 (ectodomain of CD4, D1-D4 domains) (from UniProt P06332 27-394) (domain or fragment)
- TLR4 hyperinflammation in vivo (LPS sepsis in mice); concentration of sCD4 needed for 50% inhibition: 125 nM
- TNF/IL-6 response of macrophages to LPS in vitro; concentration of sCD4 needed for 50% inhibition of TLR4 hyperinflammation: 25 nM
